Measured values: patent publication US20170096461A1 (IMMATICS BIOTECHNOLOGIES, published 2017)

Target: T1, HLA-A*02:01 (peptide-receptive MHC class I monomer after UV-ligand exchange) (human)
T1 construct: Monomers made with a UV-sensitive peptide that is cleaved by UV and exchanged for the test peptide; captured on streptavidin plates; also called MHC molecules
Experiment: UV-ligand exchange + anti-b2m ELISA; exchange yield grade: + >=10%, ++ >=20%, +++ >=50, ++++ >=75%
Description: Candidate peptides for T cell based therapies according to the present invention were further tested for their MHC binding capacity (affinity). The individual peptide-MHC complexes were produced by UV-ligand exchange, where a UV-sensitive peptide is cleaved upon UV-irradiation, and exchanged with the peptide of interest as analyzed. Only peptide candidates that can effectively bind and stabilize the peptide-receptive MHC molecules prevent dissociation of the MHC complexes. To determine the yield of the exchange reaction, an ELISA was performed based on the detection of the light chain (β2m) of stabilized MHC complexes. The assay was performed as generally described in Rodenko et al. (Rodenko et al., 2006).
96 well MAXISorp plates (NUNC) were coated over night with 2 ug/ml streptavidin in PBS at room temperature, washed 4× and blocked for 1 h at 37° C. in 2% BSA containing blocking buffer. Refolded HLA-A*02:01/MLA-001 monomers served as standards, covering the range of 15-500 ng/ml. Peptide-MHC monomers of the UV-exchange reaction were diluted 100 fold in blocking buffer. Samples were incubated for 1 h at 37° C., washed four times, incubated with 2 ug/ml HRP conjugated anti-β2m for 1 h at 37° C., washed again and detected with TMB solution that is stopped with […]. Absorption was measured at 450 nm. Candidate peptides that show a high exchange yield (preferably higher than 50%, most preferred higher than 75%) are generally preferred for a generation and production of antibodies or fragments thereof, and/or T cell receptors or fragments thereof, as they show sufficient avidity to the MHC molecules and prevent dissociation of the MHC complexes.

| peptide exchange yield | Binder |
| --- | --- |
| 50 to 75% | ALRETVVEV [peptide ALRETVVEV (SEQ ID NO: 93)] |
| 50 to 75% | LLAEIGAVTLV [peptide LLAEIGAVTLV (SEQ ID NO: 81)] |
| 50 to 75% | KAIGSLKEV [peptide KAIGSLKEV (SEQ ID NO: 72)] |
| 50 to 75% | ALSSVIKEL [peptide ALSSVIKEL (SEQ ID NO: 82)] |
| ≥ 75% | RIIDPEDLKALL [peptide RIIDPEDLKALL (SEQ ID NO: 78)] |
| ≥ 75% | QMLEAIKALEV [peptide QMLEAIKALEV (SEQ ID NO: 99)] |
| 50 to 75% | FLDSLSPSV [peptide FLDSLSPSV (SEQ ID NO: 74)] |
| ≥ 75% | SLLEYQMLV [peptide SLLEYQMLV (SEQ ID NO: 103)] |
| ≥ 75% | NLLKLIAEV [peptide NLLKLIAEV (SEQ ID NO: 96)] |
| 50 to 75% | SLFSQMGSQYEL [peptide SLFSQMGSQYEL (SEQ ID NO: 56)] |
| ≥ 75% | TLHRETFYL [peptide TLHRETFYL (SEQ ID NO: 88)] |
| 50 to 75% | RLLEPAQVQQL [peptide RLLEPAQVQQL (SEQ ID NO: 79)] |
| 50 to 75% | VLFHQLQEI [peptide VLFHQLQEI (SEQ ID NO: 64)] |
| 50 to 75% | MLYDIVPVV [peptide MLYDIVPVV (SEQ ID NO: 67)] |
| 20 to 50% | KLFDRSVDL [peptide KLFDRSVDL (SEQ ID NO: 69)] |
| 50 to 75% | AMNSQILEV [peptide AMNSQILEV (SEQ ID NO: 101)] |
| ≥ 75% | VLLNINGIDL [peptide VLLNINGIDL (SEQ ID NO: 58)] |
| 50 to 75% | YLNLISTSV [peptide YLNLISTSV (SEQ ID NO: 66)] |
| 50 to 75% | KMFENEFLL [peptide KMFENEFLL (SEQ ID NO: 84)] |
| 50 to 75% | FAYDGKDYLTL [peptide FAYDGKDYLTL (SEQ ID NO: 85)] |
| 50 to 75% | YLQDYTDRV [peptide YLQDYTDRV (SEQ ID NO: 92)] |
| 50 to 75% | FIFEQVQNV [peptide FIFEQVQNV (SEQ ID NO: 71)] |
| 50 to 75% | ALVDHLNVGV [peptide ALVDHLNVGV (SEQ ID NO: 98)] |
| ≥ 75% | VVSGATETL [peptide VVSGATETL (SEQ ID NO: 60)] |
| 50 to 75% | VMYDLITEL [peptide VMYDLITEL (SEQ ID NO: 65)] |
| 50 to 75% | YQAPYFLTV [peptide YQAPYFLTV (SEQ ID NO: 61)] |
| 20 to 50% | AAAPGEALHTA [peptide AAAPGEALHTA (SEQ ID NO: 9)] |

| peptide exchange yield | Binder |
| --- | --- |
| 50 to 75% | IQHDLIFSL [peptide IQHDLIFSL (SEQ ID NO: 89)] |
| 20 to 50% | TLLWKLVEV [peptide TLLWKLVEV (SEQ ID NO: 70)] |
| 50 to 75% | LLMSTENEL [peptide LLMSTENEL (SEQ ID NO: 63)] |
| 50 to 75% | AIIDGKIFCV [peptide AIIDGKIFCV (SEQ ID NO: 77)] |
| 50 to 75% | KVIDYVPGI [peptide KVIDYVPGI (SEQ ID NO: 86)] |
| ≥ 75% | ALFARPDLLLL [peptide ALFARPDLLLL (SEQ ID NO: 102)] |
| 50 to 75% | KLLEIDIDGV [peptide KLLEIDIDGV (SEQ ID NO: 83)] |
| ≥ 75% | VLIGDVLVAV [peptide VLIGDVLVAV (SEQ ID NO: 57)] |
| 50 to 75% | ALFPVAEDISL [peptide ALFPVAEDISL (SEQ ID NO: 94)] |
| 50 to 75% | GLLGDIAIHL [peptide GLLGDIAIHL (SEQ ID NO: 7)] |
| 50 to 75% | SLDLHVPSL [peptide SLDLHVPSL (SEQ ID NO: 75)] |
| 10 to 20% | VADPETRTV [peptide VADPETRTV (SEQ ID NO: 100)] |
| 50 to 75% | VMLPIGAVVMV [peptide VMLPIGAVVMV (SEQ ID NO: 62)] |
| 50 to 75% | ILMDPSPEYA [peptide ILMDPSPEYA (SEQ ID NO: 80)] |
| 50 to 75% | KLQDGVHII [peptide KLQDGVHII (SEQ ID NO: 91)] |
| 50 to 75% | TLVDNISTMAL [peptide TLVDNISTMAL (SEQ ID NO: 90)] |
| ≥ 75% | ALYSKGILL [peptide ALYSKGILL (SEQ ID NO: 95)] |
| 50 to 75% | FLFPVYPLI [peptide FLFPVYPLI (SEQ ID NO: 68)] |
| ≥ 75% | LLIADNPQL [peptide LLIADNPQL (SEQ ID NO: 55)] |
| ≥ 75% | VLLSGLTEV [peptide VLLSGLTEV (SEQ ID NO: 59)] |
| 50 to 75% | KLFAIPILL [peptide KLFAIPILL (SEQ ID NO: 11)] |
| 50 to 75% | SLSSYTPDV [peptide SLSSYTPDV (SEQ ID NO: 73)] |
| 50 to 75% | TLIQFTVKL [peptide TLIQFTVKL (SEQ ID NO: 104)] |
| ≥ 75% | SIMDYVVFV [peptide SIMDYVVFV (SEQ ID NO: 6)] |
| ≥ 75% | LLQNNLPAV [peptide LLQNNLPAV (SEQ ID NO: 87)] |
| 50 to 75% | ALLDGTVFEI [peptide ALLDGTVFEI (SEQ ID NO: 97)] |
